Assay results as given in patent US20250043302A1, “MUTATED HYDROXYPHENYLPYRUVATE DIOXYGENASE POLYPEPTIDE, AND CODING GENE AND USE THEREOF” (BEIJING DABEINONG BIOTECHNOLOGY CO., LTD., priority 2021, published 2025).
Residue numbers refer to the chain shown, from its start. In names and notes the source's numbering stands.

Key:
[1] = system: Arabidopsis thaliana T1 plants; experiment: Isoxaflutole tolerance of transgenic Arabidopsis thaliana T1 plants (spray, bleached leaf area grade, damage score); format: in vivo; details: Table 11; for Classification and statistics of the grade of pesticide damage Grade 0: number of plants at grade 0; for Classification and statistics of the grade of pesticide damage Grade 1: number of plants at grade 1; for Classification and statistics of the grade of pesticide damage Grade 2: number of plants at grade 2; for Classification and statistics of the grade of pesticide damage Grade 3: number of plants at grade 3; for Scores: pesticide damage score;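 for Scores: Weighted damage index from 0 to 100 where higher means more damage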
Text: (§1) T1 transformants were initially selected from the untransformed seeds using a glufosinate selection scheme. The Arabidopsis thaliana T1 plants (AsHPPD-02) into which the AsHPPD-02 nucleotide sequence was introduced, the Arabidopsis thaliana T1 plants (AsHPPDm-F372A-02) into which the AsHPPDm-F372A-02 nucleotide sequence was introduced, the Arabidopsis thaliana T1 plants (AsHPPDm-F383W-02) into which the AsHPPDm-F383W-02 nucleotide sequence was introduced, the Arabidopsis thaliana T1 plants (AsHPPDm-F372A-F383W-02) into which the AsHPPDm-F372A-F383W-02 nucleotide sequence was introduced, the Arabidopsis thaliana T1 plants (DBN11726N) into which the control recombinant expression vector DBN11726N was introduced, and the wild-type Arabidopsis thaliana plants (CK) (18 days after sowing) were sprayed respectively with topramezone at three concentrations (100 g ai/ha (four-fold field concentration, 4×), 200 g ai/ha (eight-fold field concentration, 8×), and 0 g ai/ha (water, 0×)), isoxaflutole at three concentrations (140 g ai/ha (two-fold field concentration, 2×), 280 g ai/ha (four-fold field concentration, 4×), and 0 g ai/ha (water, 0×)), and mesotrione at three concentrations (210 g ai/ha (two-fold field concentration, […]), 420 g ai/ha (four-fold field concentration, 4×), and 0 g ai/ha (water, 0×)), to determine the tolerance of Arabidopsis thaliana to the herbicides. The degree of damage caused by the herbicide was measured for each plant according to the proportion of bleached leaf area (the proportion of bleached leaf area=bleached leaf area/total leaf area×100%) 7 days after spraying (7 DAT): the case where there is basically no bleached phenotype is defined as grade 0, the case where the proportion of bleached leaf area is less than 50% is defined as grade 1, the case where the proportion of bleached leaf area is more than 50% is defined as grade 2, and the case where the proportion of bleached leaf area is 100% grade is defined as grade 3.
(§2) According to the method as described above in point 6 of Example 1, the aforementioned Arabidopsis thaliana T1 plants and wild-type Arabidopsis thaliana plants (CK) (18 days after sowing) were sprayed respectively with topramezone at three concentrations (25 g ai/ha (one-fold field concentration, 1×). 100 g ai/ha (four-fold field concentration, 4×), and 0 g ai/ha (water, 0×)), isoxaflutole at three concentrations (35 g ai/ha (half-fold field concentration, 0.5×). 70 g ai/ha (one-fold field concentration, 1×), and 0 g ai/ha (water, 0×)), and mesotrione at three concentrations (52.5 g ai/ha (half-fold field concentration, 0.5×), 105 g ai/ha (one-fold field concentration, 1×), and 0 g ai/ha (water, 0×)) to detect the tolerance of Arabidopsis thaliana to the herbicides.
(§3) According to the method as described above in point 6 of Example 1, the aforementioned Arabidopsis thaliana T1 plants and wild-type Arabidopsis thaliana plants (CK) (18 days after sowing) were sprayed with topramezone at three different concentrations (i.e., 100 g ai/ha (four-fold field concentration, 4×), 200 g ai/ha (eight-fold field concentration, 8×) and 0 g ai/ha (water, 0×)), isoxaflutole at three different concentrations (i.e., 140 g ai/ha (two-fold field concentration, 2×), 280 g ai/ha (four-fold field concentration, 4×) and 0 g ai/ha (water, 0×)), and mesotrione at three different concentrations (i.e., 210 g ai/ha (two-fold field concentration, 2×), 420 g ai/ha (four-fold field concentration, 4×) and 0 g ai/ha (water, 0×)) respectively to detect the herbicide tolerance of Arabidopsis thaliana. […]

[2] = system: Arabidopsis thaliana T1 plants; experiment: Mesotrione tolerance of transgenic Arabidopsis thaliana T1 plants (spray, bleached leaf area grade, damage score); format: in vivo; set-up: Scores: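 damage score 0-100 computed as Σ(N×S)/(T×M)×100 over grades 0-3 with higher meaning more damage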; details: Table 12; for Classification and statistics of the grade of pesticide damage Grade 0: number of plants at grade 0; for Classification and statistics of the grade of pesticide damage Grade 1: number of plants at grade 1; for Classification and statistics of the grade of pesticide damage Grade 2: number of plants at grade 2; for Classification and statistics of the grade of pesticide damage Grade 3: number of plants at grade 3; for Scores: pesticide damage score
Text: as §1, §2, §3

B1: AsHPPDm-A107-F372A-02: nucleotide sequence encoding Avena sativa HPPD with A107 deletion+F372A; vector DBN11778 (nucleic acid)
DNA: ATGCCACCTACTCCAGCTACAGCTACTGGTGCTGCTGCTGCTGCCGTTACTCCTGAGCACGCTGCCAGGTCATTCCCCAGGGTGGTTCGCGTGAACCCCAGATCTGATAGGTTCCCAGTTCTGAGCTTCCACCATGTTGAGCTGTGGTGCGCTGATGCTGCTTCTGCTGCTGGCAGGTTCTCTTTCGCTCTTGGTGCTCCACTCGCTGCTAGATCTGATCTGTCTACAGGAAATAGCGCTCATGCCTCACTCCTGCTTCGCTCAGGTGCTTTGGCCTTCCTCTTCACCGCTCCATATGCTCCCCCACCTCAGGAGGCTACTGCTGCTGCTACAGCCTCCATTCCAAGCTTCTCAGCTGATGCCGCTAGAACCTTCGCTGCTGCTCATGGACTTGCCGTGAGGTCTGTTGGTGTTCGCGTGGCTGATGCTGCTGAGGCTTTCAGAGTTTCCGTTGCCGGCGGAGCTAGGCCAGCTTTCGCTCCTGCTGATTTGGGACATGGTTTCGGCCTGGCTGAGGTTGAGCTTTACGGTGACGTGGTTCTCCGCTTCGTGTCTTACCCAGATGAGACTGACCTGCCTTTCCTTCCCGGCTTCGAGAGAGTTTCCTCTCCTGGTGCCGTGGATTACGGCCTGACAAGGTTCGACCACGTGGTTGGAAACGTTCCCGAGATGGCTCCAGTGATCGATTACATGAAGGGCTTCCTTGGATTCCATGAGTTCGCCGAGTTCACTGCTGAGGACGTGGGAACCACTGAGTCCGGTTTGAACTCTGTGGTTCTCGCCAACAATTCTGAGGCTGTTTTGCTCCCTCTGAATGAGCCTGTGCATGGAACCAAGAGGAGAAGCCAGATTCAAACTTACCTGGAGTACCACGGTGGCCCTGGAGTTCAGCATATCGCCCTTGCTTCTAATGATGTGTTGCGCACACTCAGAGAGATGCGCGCCAGAACCCCCATGGGAGGTTTCGAGTTCATGGCCCCACCACAGGCTAAGTACTACGAGGGCGTTAGAAGGATTGCTGGAGACGTGTTGAGCGAGGAGCAGATCAAGGAGTGCCAAGAGCTGGGTGTTCTTGTGGATAGGGATGACCAGGGCGTTCTGCTTCAAATTGCCACTAAGCCAGTGGGCGACCGCCCTACATTCTTCCTTGAGATGATTCAAAGAATCGGCTGCATGGAGAAGGATGAGGTTGGACAGGAGTACCAAAAGGGCGGATGCGGTGGCTTCGGAAAGGGTAACTTCAGCGAGTTGTTCAAGTCAATCGAGGACTACGAGAAGAGCCTCGAGGTGAAGCAGTCAGTGGTTGCCCAAAAGTCCTGA
modifications: AsHPPDm-A107-F372A-02 Nucleotide Sequence
notes: vector DBN11778
**Q.** Which results are given for B1?
**A.** Resistance evaluation ([1]; isoxaflutole 140 g ai/ha (2×)): Moderately; Classification and statistics of the grade of pesticide damage Grade 0 ([1]; isoxaflutole 140 g ai/ha (2×)): 5; Classification and statistics of the grade of pesticide damage Grade 1 ([1]; isoxaflutole 140 g ai/ha (2×)): 7; Classification and statistics of the grade of pesticide damage Grade 2 ([1]; isoxaflutole 140 g ai/ha (2×)): 4; Classification and statistics of the grade of pesticide damage Grade 3 ([1]; isoxaflutole 140 g ai/ha (2×)): 0; Scores ([1]; isoxaflutole 140 g ai/ha (2×)): 31; Resistance evaluation ([1]; isoxaflutole 280 g ai/ha (4×)): Poorly resistant; Classification and statistics of the grade of pesticide damage Grade 0 ([1]; isoxaflutole 280 g ai/ha (4×)): 0; Classification and statistics of the grade of pesticide damage Grade 1 ([1]; isoxaflutole 280 g ai/ha (4×)): 1; Classification and statistics of the grade of pesticide damage Grade 2 ([1]; isoxaflutole 280 g ai/ha (4×)): 15; Classification and statistics of the grade of pesticide damage Grade 3 ([1]; isoxaflutole 280 g ai/ha (4×)): 0; Scores ([1]; isoxaflutole 280 g ai/ha (4×)): 65; Resistance evaluation ([2]; mesotrione 210 g ai/ha (2×)): Moderately; Classification and statistics of the grade of pesticide damage Grade 0 ([2]; mesotrione 210 g ai/ha (2×)): 6; Classification and statistics of the grade of pesticide damage Grade 1 ([2]; mesotrione 210 g ai/ha (2×)): 7; Classification and statistics of the grade of pesticide damage Grade 2 ([2]; mesotrione 210 g ai/ha (2×)): 1; Classification and statistics of the grade of pesticide damage Grade 3 ([2]; mesotrione 210 g ai/ha (2×)): 2; Scores ([2]; mesotrione 210 g ai/ha (2×)): 31; Resistance evaluation ([2]; mesotrione 420 g ai/ha (4×)): Poorly resistant; Classification and statistics of the grade of pesticide damage Grade 0 ([2]; mesotrione 420 g ai/ha (4×)): 1; Classification and statistics of the grade of pesticide damage Grade 1 ([2]; mesotrione 420 g ai/ha (4×)): 7; Classification and statistics of the grade of pesticide damage Grade 2 ([2]; mesotrione 420 g ai/ha (4×)): 8; Classification and statistics of the grade of pesticide damage Grade 3 ([2]; mesotrione 420 g ai/ha (4×)): 0; Scores ([2]; mesotrione 420 g ai/ha (4×)): 48

B2: AsHPPDm-A107-F383W-02: nucleotide sequence encoding Avena sativa HPPD with A107 deletion+F383W; vector DBN11779 (nucleic acid)
DNA: B1 DNA with G1111T, C1112T, T1145G, C1146G
modifications: AsHPPDm-A107-F383W-02 Nucleotide Sequence
notes: vector DBN11779
**Q.** B2 was tested. Which Resistance evaluation ([1]; isoxaflutole 140 g ai/ha (2×)) did it give?
**A.** Moderately

**Q.** What about the “Classification and statistics of the grade of pesticide damage Grade 0” value ([1]; isoxaflutole 140 g ai/ha (2×)) of the same molecule?
**A.** 7

**Q.** What about the “Classification and statistics of the grade of pesticide damage Grade 1” value ([1]; isoxaflutole 140 g ai/ha (2×)) of the same molecule?
**A.** 7

**Q.** And the “Classification and statistics of the grade of pesticide damage Grade 2” value ([1]; isoxaflutole 140 g ai/ha (2×))?
**A.** 1

**Q.** What about the “Classification and statistics of the grade of pesticide damage Grade 3” value ([1]; isoxaflutole 140 g ai/ha (2×)) of the same molecule?
**A.** 1

**Q.** And the Scores ([1]; isoxaflutole 140 g ai/ha (2×))?
**A.** 25

**Q.** And the Resistance evaluation ([1]; isoxaflutole 280 g ai/ha (4×))?
**A.** Poorly resistant

**Q.** And the “Classification and statistics of the grade of pesticide damage Grade 0” value ([1]; isoxaflutole 280 g ai/ha (4×))?
**A.** 4

**Q.** And the “Classification and statistics of the grade of pesticide damage Grade 1” value ([1]; isoxaflutole 280 g ai/ha (4×))?
**A.** 4

**Q.** What about the “Classification and statistics of the grade of pesticide damage Grade 2” value ([1]; isoxaflutole 280 g ai/ha (4×)) of the same molecule?
**A.** 7

**Q.** And the “Classification and statistics of the grade of pesticide damage Grade 3” value ([1]; isoxaflutole 280 g ai/ha (4×))?
**A.** 1

**Q.** What about the Scores ([1]; isoxaflutole 280 g ai/ha (4×)) of the same molecule?
**A.** 44

**Q.** And the Resistance evaluation ([2]; mesotrione 210 g ai/ha (2×))?
**A.** Moderately

**Q.** And the “Classification and statistics of the grade of pesticide damage Grade 0” value ([2]; mesotrione 210 g ai/ha (2×))?
**A.** 4

**Q.** And the “Classification and statistics of the grade of pesticide damage Grade 1” value ([2]; mesotrione 210 g ai/ha (2×))?
**A.** 9

**Q.** And the “Classification and statistics of the grade of pesticide damage Grade 2” value ([2]; mesotrione 210 g ai/ha (2×))?
**A.** 3

**Q.** And the “Classification and statistics of the grade of pesticide damage Grade 3” value ([2]; mesotrione 210 g ai/ha (2×))?
**A.** 0

**Q.** And the Scores ([2]; mesotrione 210 g ai/ha (2×))?
**A.** 31

**Q.** What about the Resistance evaluation ([2]; mesotrione 420 g ai/ha (4×)) of the same molecule?
**A.** Poorly resistant

**Q.** And the “Classification and statistics of the grade of pesticide damage Grade 0” value ([2]; mesotrione 420 g ai/ha (4×))?
**A.** 0

**Q.** And the “Classification and statistics of the grade of pesticide damage Grade 1” value ([2]; mesotrione 420 g ai/ha (4×))?
**A.** 2

**Q.** And the “Classification and statistics of the grade of pesticide damage Grade 2” value ([2]; mesotrione 420 g ai/ha (4×))?
**A.** 14

**Q.** And the “Classification and statistics of the grade of pesticide damage Grade 3” value ([2]; mesotrione 420 g ai/ha (4×))?
**A.** 0

**Q.** What about the Scores ([2]; mesotrione 420 g ai/ha (4×)) of the same molecule?
**A.** 63
